Laboratory results as given in the supplement of paper PMC10126150.
± gives the standard deviation of the averaged measurements.

tested on: ATP; experiment: switch fluorescence ratio, 500 uM ATP over buffer (Cy3 cluster intensity, sum of 5 cycles each) (fold (ratio)); higher = stronger signal-on switching upon ATP binding; sequences stand for … in TCGTCGGCAGCGTCAGATGTGTATAAGAGACAGTTTTTTTTTTTTTTTTTTTTTTTTT…TC; settings: aptamer strand: ATP DNA aptamer (quencher-CACCTGGGGGAGTATTGCGGAGGAAGG + anchor), 100 nM annealed; ATP concentration: 500 uM
Summary of the method: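 Exposure to 500 uM ATP lasted 15 min at 22 °C before imaging, and a selection-buffer image was taken beforehand, for Cy3-labelled switching-strand clusters on a modified Illumina MiSeq flow-cell annealed to 100 nM quencher-labelled ATP aptamer. Five buffer/ATP cycles were run with NaOH stripping and re-annealing between them. The fluorescence ratio per cluster is summed target-cycle over summed buffer-cycle Cy3 intensity, averaged per switch-domain sequence. Clusters outside 100-1000 RFU were excluded.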

Question: How did the switch fluorescence ratio turn out when TGTTCTAGTA was run?
Answer: 1.27 ± 0.45

Question: How did the switch fluorescence ratio turn out when CGTTCATGGG was run?
Answer: 0.993 ± 0.017

Question: Which switch fluorescence ratio does the source give for CATTGCGATT here?
Answer: 1.13 ± 0.14

Question: For GGAAGTAGGA, which switch fluorescence ratio is on record?
Answer: 0.98839 ± 0.00067

Question: How did the switch fluorescence ratio turn out when TTTATATATG was run?
Answer: 1 ± 0.024

Question: With AGGGAGGTGT as the sequence, how does the switch fluorescence ratio read?
Answer: 0.997 ± 0.036

Question: Which switch fluorescence ratio does the source give for AGAAATTCGA here?
Answer: 1.03 ± 0.012

Question: Which switch fluorescence ratio does the source give for TTCCTTTAAA here?
Answer: 1.07 ± 0.065

Question: With TTAAGGTTTT as the sequence, how does the switch fluorescence ratio read?
Answer: 1 ± 0.03

Question: Which switch fluorescence ratio does the source give for GGGGGGGGTT here?
Answer: 1 ± 0.042

Question: For TTTGCAGGGC, which switch fluorescence ratio is on record?
Answer: 1.05 ± 0.012

Question: Which switch fluorescence ratio does the source give for TGAGCTGATG here?
Answer: 0.986 ± 0.032

Question: Which switch fluorescence ratio does the source give for CAATGTAAGA here?
Answer: 0.989 ± 0.012

Question: For AATCGGTTCT, which switch fluorescence ratio is on record?
Answer: 0.979 ± 0.05

Question: For CGGGGGGTG, which switch fluorescence ratio is on record?
Answer: 1.01 ± 0.05

Question: How did the switch fluorescence ratio turn out when TTTCTTGGGT was run?
Answer: 1.04 ± 0.17

Question: ATAGGTGTGG was tested. Which switch fluorescence ratio did it give?
Answer: 1.02 ± 0.035

Question: Which switch fluorescence ratio does the source give for GGGATCTGCG here?
Answer: 0.95 ± 0.017

Question: AGGGGAATG was tested. Which switch fluorescence ratio did it give?
Answer: 1 ± 0.022

Question: For ATCACGTCGG, which switch fluorescence ratio is on record?
Answer: 1.014 ± 0.0093

Question: With GGGTAAATGT as the sequence, how does the switch fluorescence ratio read?
Answer: 0.9908 ± 0.0024

Question: GTGAGTTTGT was tested. Which switch fluorescence ratio did it give?
Answer: 1.01 ± 0.027

Question: Which switch fluorescence ratio does the source give for TTAGAGTACG here?
Answer: 1.036 ± 0.0075

Question: GGGGAGGCCA was tested. Which switch fluorescence ratio did it give?
Answer: 0.963 ± 0.031

Question: With CGGACATGGA as the sequence, how does the switch fluorescence ratio read?
Answer: 1.011 ± 0.0084

Question: Which switch fluorescence ratio does the source give for GTGGATTGCG here?
Answer: 0.9975 ± 0.0075

Question: With GAGTGAGGTG as the sequence, how does the switch fluorescence ratio read?
Answer: 1.01 ± 0.1

Question: With GGGTACATTT as the sequence, how does the switch fluorescence ratio read?
Answer: 0.987 ± 0.016

Question: Which switch fluorescence ratio does the source give for CTTATAGTGG here?
Answer: 1.06 ± 0.058

Question: With AGTTATAGCT as the sequence, how does the switch fluorescence ratio read?
Answer: 0.985 ± 0.014

Question: Which switch fluorescence ratio does the source give for GCCGGGATGG here?
Answer: 1 ± 0.031

Question: With GATGGGGTAG as the sequence, how does the switch fluorescence ratio read?
Answer: 0.994 ± 0.039

Question: With AAGTGTTAGC as the sequence, how does the switch fluorescence ratio read?
Answer: 0.995 ± 0.022

Question: How did the switch fluorescence ratio turn out when AAAGGCCGTG was run?
Answer: 1.0223 ± 0.00097

Question: How did the switch fluorescence ratio turn out when TGGCGGTGAC was run?
Answer: 1.02 ± 0.01

Question: TTCTATTATA was tested. Which switch fluorescence ratio did it give?
Answer: 0.977 ± 0.018

Question: How did the switch fluorescence ratio turn out when CATAACGCCT was run?
Answer: 1.09 ± 0.027

Question: Which switch fluorescence ratio does the source give for GAATTGTTGT here?
Answer: 1 ± 0.02

Question: GATTCGTCGG was tested. Which switch fluorescence ratio did it give?
Answer: 1.01 ± 0.021

Question: With TATTGAGAGC as the sequence, how does the switch fluorescence ratio read?
Answer: 1.01 ± 0.064

Question: TAAGGTATGT was tested. Which switch fluorescence ratio did it give?
Answer: 1.03 ± 0.026

Question: How did the switch fluorescence ratio turn out when TAAGGAAAAT was run?
Answer: 0.998 ± 0.02

Question: With CGTAAACGCT as the sequence, how does the switch fluorescence ratio read?
Answer: 1.04 ± 0.024

Question: Which switch fluorescence ratio does the source give for TACTCGAAAC here?
Answer: 1.8 ± 0.97

Question: How did the switch fluorescence ratio turn out when TCCTTGCTTT was run?
Answer: 1.1 ± 0.025

Question: TTGTAATTAC was tested. Which switch fluorescence ratio did it give?
Answer: 1.3 ± 0.44

Question: TCGGAGGA was tested. Which switch fluorescence ratio did it give?
Answer: 1.03 ± 0.048

Question: Which switch fluorescence ratio does the source give for CGGGGGGGGA here?
Answer: 1.02 ± 0.035

Question: How did the switch fluorescence ratio turn out when GGCGCCATGA was run?
Answer: 1.034 ± 0.0036

Question: TTGGAGCCCT was tested. Which switch fluorescence ratio did it give?
Answer: 1.069 ± 0.0022

Question: For AAGTGTGTTC, which switch fluorescence ratio is on record?
Answer: 0.999 ± 0.016

Question: With TAGAGATTAG as the sequence, how does the switch fluorescence ratio read?
Answer: 1 ± 0.038

Question: Which switch fluorescence ratio does the source give for GTGAGGGGCT here?
Answer: 0.977 ± 0.04

Question: GGGGGGAGCT was tested. Which switch fluorescence ratio did it give?
Answer: 1.02 ± 0.057

Question: How did the switch fluorescence ratio turn out when TACTTGTGTA was run?
Answer: 1.02 ± 0.014

Question: Which switch fluorescence ratio does the source give for GTTGTGTGTT here?
Answer: 0.975 ± 0.016

Question: With GATCGAAGTT as the sequence, how does the switch fluorescence ratio read?
Answer: 0.984 ± 0.033

Question: For TGGAGCTGGG, which switch fluorescence ratio is on record?
Answer: 1.31 ± 0.5

Question: How did the switch fluorescence ratio turn out when TTTTTGTGCA was run?
Answer: 1.01 ± 0.011

Question: CGGTAGATGT was tested. Which switch fluorescence ratio did it give?
Answer: 1 ± 0.034

Question: How did the switch fluorescence ratio turn out when GGGATAGGAG was run?
Answer: 1 ± 0.03

Question: With CGTCAATCT as the sequence, how does the switch fluorescence ratio read?
Answer: 1.53 ± 0.061

Question: Which switch fluorescence ratio does the source give for GGAGCGATGG here?
Answer: 3.31 ± 1.2

Question: For GCACATAGGG, which switch fluorescence ratio is on record?
Answer: 1.02 ± 0.011

Question: How did the switch fluorescence ratio turn out when GCAATGGCAT was run?
Answer: 0.987 ± 0.03

Question: How did the switch fluorescence ratio turn out when TTGATGCCGG was run?
Answer: 1.05 ± 0.049

Question: How did the switch fluorescence ratio turn out when TCAAAATTGG was run?
Answer: 1.004 ± 0.0082

Question: Which switch fluorescence ratio does the source give for GGAGAACGAT here?
Answer: 1.03 ± 0.027

Question: TTGGCTGTTT was tested. Which switch fluorescence ratio did it give?
Answer: 1.016 ± 0.01

Question: Which switch fluorescence ratio does the source give for GCGGGAGGCT here?
Answer: 0.977 ± 0.028

Question: Which switch fluorescence ratio does the source give for CGCGATATGG here?
Answer: 1.49 ± 0.17

Question: How did the switch fluorescence ratio turn out when TCAAAAAATG was run?
Answer: 1.01 ± 0.042

Question: TTGCTGTACT was tested. Which switch fluorescence ratio did it give?
Answer: 1.02 ± 0.021

Question: How did the switch fluorescence ratio turn out when GGGATAGACT was run?
Answer: 0.995 ± 0.035

Question: CGCTTAAAAA was tested. Which switch fluorescence ratio did it give?
Answer: 1.02 ± 0.079

Question: How did the switch fluorescence ratio turn out when ATTACTCGCG was run?
Answer: 1.05 ± 0.012

Question: AGCCGTCAAC was tested. Which switch fluorescence ratio did it give?
Answer: 1.05 ± 0.041

Question: Which switch fluorescence ratio does the source give for TTGGCATGAG here?
Answer: 0.987 ± 0.02

Question: For AAATTCATTG, which switch fluorescence ratio is on record?
Answer: 0.969 ± 0.04

Question: Which switch fluorescence ratio does the source give for GAGGGTATTT here?
Answer: 0.978 ± 0.03

Question: Which switch fluorescence ratio does the source give for TCGTTCATGA here?
Answer: 1 ± 0.061

Question: For AGTGTCTGGG, which switch fluorescence ratio is on record?
Answer: 0.992 ± 0.022

Question: ATGAATGAGT was tested. Which switch fluorescence ratio did it give?
Answer: 0.985 ± 0.016

Question: AAGGGGTCGG was tested. Which switch fluorescence ratio did it give?
Answer: 1 ± 0.036

Question: Which switch fluorescence ratio does the source give for TCAAATGTGC here?
Answer: 1.02 ± 0.033

Question: How did the switch fluorescence ratio turn out when GGGATATTGG was run?
Answer: 0.992 ± 0.013

Question: With AGAGGGGGAA as the sequence, how does the switch fluorescence ratio read?
Answer: 0.978 ± 0.014

Question: For TTGAGTATGG, which switch fluorescence ratio is on record?
Answer: 0.976 ± 0.028

Question: How did the switch fluorescence ratio turn out when TTTGTTCAT was run?
Answer: 0.998 ± 0.028

Question: How did the switch fluorescence ratio turn out when ACTATGGGGA was run?
Answer: 1.01 ± 0.0026

Question: For TCAAATAATC, which switch fluorescence ratio is on record?
Answer: 1.01 ± 0.03

Question: Which switch fluorescence ratio does the source give for AGGGTAATTA here?
Answer: 0.979 ± 0.029

Question: TTCGTTATCT was tested. Which switch fluorescence ratio did it give?
Answer: 0.981 ± 0.015

Question: How did the switch fluorescence ratio turn out when AGGGTGGTGC was run?
Answer: 1.03 ± 0.018

Question: With TATGGGGGTT as the sequence, how does the switch fluorescence ratio read?
Answer: 0.987 ± 0.022

Question: Which switch fluorescence ratio does the source give for TAGCGGTTCG here?
Answer: 1.01 ± 0.034

Question: How did the switch fluorescence ratio turn out when TGCCGGGGTC was run?
Answer: 1 ± 0.048

Question: With CAAATTCTGT as the sequence, how does the switch fluorescence ratio read?
Answer: 1.009 ± 0.009

Question: Which switch fluorescence ratio does the source give for TCTTTTGGCA here?
Answer: 1.1 ± 0.078

Question: With ACGGTATGGG as the sequence, how does the switch fluorescence ratio read?
Answer: 1.07 ± 0.046
